Measurements: patent US5534260A, “Percutaneous drug delivery system” (priority 1994, dated 1996)
“Also recorded” adds a separate entry of the source.

Columns and labels:
[1] = Fourier Transform Infrared spectroscopy of stratum corneum; design: species or system mouse; details: for Absorbance in protein areas, peak position: Table I; for FTIR peak, Amide III / FTIR peak, Shoulder Beta sheet / FTIR peak, Alpha helix peak: Table IV; for FTIR peak, Amide III: untreated 1244; for FTIR peak, Shoulder Beta sheet: untreated 1267; for FTIR peak, Alpha helix peak: untreated 1295; for Symmetric CH peak position / Asymmetric CH peak position: Table V; for Symmetric CH peak position: normal SC 2848.3; for Asymmetric CH peak position: normal SC 2916.5; for Length of 70% line, symmetric line / Length of 70% line, asymmetric line: Table VI; for Length of 70% line, symmetric line: normal SC 8.6; for Length of 70% line, asymmetric line: normal SC 17.5
Description: A. Comparisons of normal stratum corneum (from mouse skin) to stratum corneum treated with a 0.09% concentration of papain for 24 hours was performed using Fourier Transform Infrared spectroscopy (FTIR). […] It is postulated that a shift from a random form of protein to the more organized beta sheet structure occurs. The alpha-helix structures of skin protein could be fractionated, uncoiled, or both.
A comparison of symmetric and asymmetric CH stretch bands was then made. These two bands represent lipid structure and would show any changes in the stratum corneum lipids caused by the papain.
B. Azone™ was tested as a permeation enhancer with and without the presence of papain.

[2] = Effect of non-enzyme components in admixture with papain on penetration of 14C-TEAB (Example IV)
[3] = Skin damage / irritation by papain pretreatment; details: in words
[4] = Enhancement of acetylcholine chloride penetration through hairless mouse skin at pH 7.4 (Example III); format: in vitro ADME
Description: A percutaneous permeation enhancer having the following formula was prepared: […]
The effect of the percutaneous enhancer, as prepared in Example II above, was measured on the penetration of the quaternary compound acetylcholine chloride through hairless mouse skin at pH 7.4. […] The data below indicates a potentiating or synergistic effect in combining the agents for use as an enhancer.
Enhancement effect of 0.0465 mg/ml Sigma papain alone and in
combination with 2% Azone™ and 15% propylene glycol on the
penetration of acetylcholine chloride through hairless mouse

[5] = 14C-TEAB through pretreated skin (n = 1 for components alone, n = 2 combinations, n = 3 papain 0.0465 mg/ml 24 hours)
[6] = acetylcholine chloride, pH 7.4, pretreated skin

B1: papain: proteolytic enzyme; preferred enzyme, readily available from Sigma Chemical Company (protein, UniProt P00784 134-345, looked up)
Papain: IPEYVDWRQKGAVTPVKNQGSCGSCWAFSAVVTIEGIIKIRTGNLNEYSEQELLDCDRRSYGCNGGYPWSALQLVAQYGIHYRNTYPYEGVQRYCRSREKGPYAAKTDGVRQVQPYNEGALLYSIANQPVSVVLEAAGKDFQLYRGGIFVGPCGNKVDHAVAAVGYGPNYILIKNSWGTGWGENGYIRIKRGTGNSYGVCGLYTSSFYPVKN
recovery after removal of papain ([1]; 24 hours): partial recovery
recovery after removal of papain ([1]; 48 hours): nearly complete recovery
Absorbance in protein areas, peak position ([1]; untreated SC 1244): 1236.6 cm⁻¹
Absorbance in protein areas, peak position ([1]; untreated SC 1267): 1263.7 cm⁻¹
Absorbance in protein areas, peak position ([1]; untreated SC 1295): 1288.4 cm⁻¹
Absorbance in protein areas, peak position ([1]; untreated SC 1400.5): 1403.8 cm⁻¹
Absorbance in protein areas, peak position ([1]; untreated SC 1456): 1464.7 cm⁻¹
Absorbance in lipid areas, symmetric CH peak position ([1]; Table II, untreated 2848.3): 2850 cm⁻¹
Absorbance in lipid areas, asymmetric CH peak position ([1]; Table II, untreated 2916.5): 2920 cm⁻¹
Length of the 70% line, symmetric CH ([1]; Table III, untreated 8.6): 9.1 cm⁻¹
Length of the 70% line, asymmetric CH ([1]; Table III, untreated 17.5): 17.5 cm⁻¹
FTIR peak, Amide III ([1]; 24 hr recovery after papain): 1242.4 cm⁻¹
FTIR peak, Shoulder Beta sheet ([1]; 24 hr recovery after papain): 1271.8 cm⁻¹
FTIR peak, Alpha helix peak ([1]; 24 hr recovery after papain): 1301.7 cm⁻¹
FTIR peak, Amide III ([1]; 48 hr recovery after papain): 1243.2 cm⁻¹
FTIR peak, Shoulder Beta sheet ([1]; 48 hr recovery after papain): 1268.4 cm⁻¹
FTIR peak, Alpha helix peak ([1]; 48 hr recovery after papain): 1296.5 cm⁻¹
FTIR peak, Amide III ([1]; papain treated): 1236 cm⁻¹
FTIR peak, Shoulder Beta sheet ([1]; papain treated): 1262 cm⁻¹
FTIR peak, Alpha helix peak ([1]; papain treated): 1288 cm⁻¹
Symmetric CH peak position ([1]; 48 hr recovery SC): 2849.3 cm⁻¹
Asymmetric CH peak position ([1]; 48 hr recovery SC): 2916.5 cm⁻¹
Symmetric CH peak position ([1]; papain treated SC): 2848.5 cm⁻¹
Asymmetric CH peak position ([1]; papain treated SC): 2916.3 cm⁻¹
Length of 70% line, symmetric line ([1]; 48 hr recovery SC): 10.5 cm⁻¹
Length of 70% line, asymmetric line ([1]; 48 hr recovery SC): 19.3 cm⁻¹
Length of 70% line, symmetric line ([1]; papain treated SC): 9.1 cm⁻¹
Length of 70% line, asymmetric line ([1]; papain treated SC): 17.5 cm⁻¹
change in lipid structure / CH stretch bands of stratum corneum ([1]; in words): no change in lipid structure
change in protein FTIR areas of stratum corneum ([1]; in words): significant changes occurring in the amide III, beta sheet, and alpha-helix formations of the stratum corneum cells
drug penetration (pH 7.4): greater drug penetration
increase in absorption of TEAB (skin pretreated with papain): 3,346%
J (flux) [2, 5]: (1.33 ± 0.48) × 10^-4 mg cm^-2 s^-1
P (permeability) [2, 5]: (1.63 ± 0.59) × 10^-7 cm s^-1
E (enhancement effect) ([2]; 14C-TEAB, n = 1 components alone, n = 2 combinations, n = 3 papain): 32.93
skin damage / irritation [3]: increased damage to the skin and can cause bleeding; also recorded: damage the skin, possibly leading to bleeding
E (enhancement effect) ([4]; acetylcholine chloride, pH 7.4): 88.4
J (flux) [4, 6]: 5.67 × 10^-4 mg/cm^2 /sec
P (permeability) [4, 6]: 2.83 ×10⁻⁶ cm/s
increase in penetration of acetylcholine chloride ([4]; pH 7.4, pretreatment): eighty-eight
